From article PMC11750923, “High-affinity ssDNA aptamer and chemiluminescent aptasensor for TIMP-1 detection in human serum” come the findings set out here.

For the series, the target named is TIMP-1 (tissue inhibitor of metalloproteinases 1) (human, UniProt P01033 24-207). As to the kind of experiment: BLI; DPBS + 0.025% Tween 20; kon 1.30e6 M-1 s-1, koff 5.36e-4 s-1; 1:1 with mass transport; DPBS (138 mM NaCl, 2.67 mM KCl, 8.1 mM Na2HPO4, 1.47 mM KH2PO4, 1 mM CaCl2, 0.5 mM MgCl2); BLI with 0.025% Tween 20; pH and temperature not stated. The conditions noted are these: protein: commercial; tags: His; label: biotin (BLI); hairpin.
Sequence of TIMP-1 (tissue inhibitor of metalloproteinases 1) (P01033 24-207): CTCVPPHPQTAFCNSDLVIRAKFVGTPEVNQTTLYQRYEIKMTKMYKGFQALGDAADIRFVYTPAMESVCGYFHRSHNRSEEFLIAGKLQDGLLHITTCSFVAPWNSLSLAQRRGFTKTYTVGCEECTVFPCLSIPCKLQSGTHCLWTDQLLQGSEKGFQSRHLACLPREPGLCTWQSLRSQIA

B1: Apt-4 (ssDNA)
DNA: CACGCATAGCGCCCCAACCCCAGTCGATGAAATTGCGTCGCGGGTGCCTATGCGTG
For B1, the Kd (commonly the concentration at which binding is half-saturated) amounted to 0.41 nM.
